Test results: paper PMC4954676

| KM of cleavage of the peptide by thrombin (fluorescence polarisation cleavage assay, Michaelis-Menten fit) (human thrombin (human)) | kcat of cleavage of the peptide by thrombin (fluorescence polarisation cleavage assay, Michaelis-Menten fit) (human thrombin (human)) | kcat/KM of cleavage of the peptide by thrombin (fluorescence polarisation cleavage assay, Michaelis-Menten fit) (human thrombin (human)) | fold reduction of kcat/KM of cleavage by thrombin, truncated FpA peptide against the full length peptide (human thrombin (human)) | fold reduction of kcat/KM of cleavage by rat thrombin, truncated rat FpA peptide against the full-length rat FpA peptide (rat thrombin (rat)) | Substance |
| --- | --- | --- | --- | --- | --- |
| 51 µM | 9.1 s⁻¹ | 180000 M⁻¹ s⁻¹ | – | – | synthetic peptide containing full-length human FpA and the first four residues of the main α-chain |
| 630 µM | 0.25 s⁻¹ | – | 490 fold | – | synthetic peptide containing NEP-truncated human FpA and the first four residues of the main α-chain |
| – | – | – | – | 5.7 fold | synthetic peptide containing NEP-truncated rat FpA and the first four residues of the main α-chain |
